# Measurements: PMC6996395 (FASEB bioAdvances, 2019)
# Target: Split-CFTR front half (N-term-TMD1-NBD1; aa 1-634) (UniProt P13569 1-634)
# Test: proximity ligation
# Chain of Split-CFTR front half (N-term-TMD1-NBD1; aa 1-634) (P13569 1-634): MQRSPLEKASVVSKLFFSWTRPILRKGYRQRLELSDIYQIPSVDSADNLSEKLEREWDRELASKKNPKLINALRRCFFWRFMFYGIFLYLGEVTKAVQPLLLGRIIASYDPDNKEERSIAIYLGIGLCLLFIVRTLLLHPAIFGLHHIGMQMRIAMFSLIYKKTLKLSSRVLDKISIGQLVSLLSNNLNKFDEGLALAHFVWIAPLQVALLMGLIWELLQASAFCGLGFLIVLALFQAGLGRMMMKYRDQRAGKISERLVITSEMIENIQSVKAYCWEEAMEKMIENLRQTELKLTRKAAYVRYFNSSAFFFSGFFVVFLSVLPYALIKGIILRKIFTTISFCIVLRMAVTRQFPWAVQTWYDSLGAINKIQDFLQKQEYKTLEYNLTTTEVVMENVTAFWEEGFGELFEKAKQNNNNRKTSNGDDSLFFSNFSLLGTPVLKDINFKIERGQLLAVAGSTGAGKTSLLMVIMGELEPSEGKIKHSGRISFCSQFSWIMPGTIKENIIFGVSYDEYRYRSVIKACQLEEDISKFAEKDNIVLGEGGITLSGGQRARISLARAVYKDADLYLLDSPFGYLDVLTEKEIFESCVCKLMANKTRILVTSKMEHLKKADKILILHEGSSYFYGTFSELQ
binder,measurement,value
"CFTR R-region R-6CA (S641A/T682A/S707A/S790A/T791A/S809A; aa 635-836) (domain or fragment, UniProt P13569 635-836, looked up) NLQPDFASKLMGCDSFDQFSAERRNSILTETLHRFSLEGDAPVSWTEAKKQSFKQTGEFGEKRKNSILNPINAIRKFSIVQKTPLQMNGIEEDSDEPLERRLSLVPDSEQGEAILPRISVISTGPTLQARRRQSVLNLMTHSVNQGQNIHRKTTAAARKVSLAPQANLTELDIYARRLSQETGLEISEEINEEDLKECFFDD",CTCF of PLA signal (after PKA stimulation),1.4
same,CTCF of PLA signal (after PKC + PKA stimulation),5.28
same,CTCF of PLA signal (after PKC stimulation),5.54
same,CTCF of PLA signal (basal),0.33
